According to US6339070B1, “Gene construct encoding a heterologous prodrug-activating enzyme and a cell targeting moiety” (Zeneca Limited, priority 1997, dated 2002):

Biological target: T1, human carcinoembryonic antigen (CEA) (Homo sapiens, UniProt P06731)
T1 sequence (P06731 35-676): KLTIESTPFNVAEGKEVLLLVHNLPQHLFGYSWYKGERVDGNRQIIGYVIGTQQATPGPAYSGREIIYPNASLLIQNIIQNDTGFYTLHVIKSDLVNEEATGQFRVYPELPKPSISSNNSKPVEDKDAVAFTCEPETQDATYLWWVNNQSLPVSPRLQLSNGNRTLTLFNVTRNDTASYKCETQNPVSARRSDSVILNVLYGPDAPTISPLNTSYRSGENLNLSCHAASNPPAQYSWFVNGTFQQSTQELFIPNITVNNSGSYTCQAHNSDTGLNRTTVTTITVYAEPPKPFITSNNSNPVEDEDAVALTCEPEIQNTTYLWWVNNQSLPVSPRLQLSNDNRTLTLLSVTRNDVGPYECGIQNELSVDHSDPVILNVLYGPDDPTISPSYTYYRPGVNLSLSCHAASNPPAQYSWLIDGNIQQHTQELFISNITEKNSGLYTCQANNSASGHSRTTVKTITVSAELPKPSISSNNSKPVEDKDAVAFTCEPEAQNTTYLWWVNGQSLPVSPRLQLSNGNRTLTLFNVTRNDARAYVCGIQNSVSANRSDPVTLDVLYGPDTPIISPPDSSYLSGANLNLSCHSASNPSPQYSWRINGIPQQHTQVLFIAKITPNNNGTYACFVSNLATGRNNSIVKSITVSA
Assay: CEA-binding ELISA, anti-CPG2 reporter antibody
Conditions: COS-7 transient expression supernatant
Experimental: The CEA ELISA using an anti CPG2 reporter antibody was essentially as above but instead of HRPO-labelled goat anti-human kappa antibody an 1/1000 dil. of a rabbit anti-CPG2 polyclonal sera was added, in 1% BSA in PBS-TWEEN™ and incubated at room temperature on a rocking platform for at 2 hours. The plate was washed three times with PBS-TWEEN™. A 1/2000 dilution of a goat anti-rabbit HRPO labelled antibody (Sigma A-6154) was then added and incubated at room temperature on a rocking platform for 1 hour, the plate was washed three times with PBS-TWEEN™ and once with PBS. To detect binding add 100 μl per well developing solution (one capsule of phosphate-citrate buffer—Sigma P4922—dissolved in 100 ml H2O to which is added one 30 mg tablet o-phenylenediamine dihydrochloride—Sigma P8412) and incubated for up to 15 minutes. The reaction was stopped by adding 75 μl 2M H2SO4, and absorbance read at 490 nm.

B1: (A5B7 Fab-CPG2)2 fusion protein: chimaeric A5B7 anti-CEA Fab, heavy chain Fd linked via (G4S)3 linker to CPG2 R6, dimerised through CPG2 (antibody)
heavy: EVKLVESGGGLVQPGGSLRLSCATSGFTFTDYYMNWVRQPPGKALEWLGFIGNKANGYTTEYSASVKGRFTISRDKSQSILYLQMNTLRAEDSATYYCTRDRGLRFYFDYWGQGTTLTVSSASTKGPSVFPLAPCSRSTSESTAALGCLVKDYFPEPVTVSWNSGALTSGVHTFPAVLQSSGLYSLSSVVTVPSSNFGTQTYTCNVDHKPSNTKVDKTVGGGGSGGGGSGGGGSQKRDNVLFQAATDEQPAVIKTLEKLVNIETGTGDAEGIAAAGNFLEAELKNLGFTVTRSKSAGLVVGDNIVGKIKGRGGKNLLLMSHMDTVYLKGILAKAPFRVEGDKAYGPGIADDKGGNAVILHTLKLLKEYGVRDYGTITVLFNTDEEKGSFGSRDLIQEEAKLADYVLSFEPTSAGDEKLSLGTSGIAYVQVQITGKASHAGAAPELGVNALVEASDLVLRTMNIDDKAKNLRFQWTIAKAGQVSNIIPASATLNADVRYARNEDFDAAMKTLEERAQQKKLPEADVKVIVTRGRPAFNAGEGGKKLVDKAVAYYKEAGGTLGVEERTGGGTDAAYAALSGKPVIESLGLPGFGYHSDKAEYVDISAIPRRLYMAARLIMDLGAGK
light: QTVLSQSPAILSASPGEKVTMTCRASSSVTYIHWYQQKPGSSPKSWIYATSNLASGVPARFSGSGSGTSYSLTISRVEAEDAATYYCQHWSSKPPTFGGGTKLEIKRTVAAPSVFIFPPSDEQLKSGTASVVCLLNNFYPREAKVQWKVDNALQSGNSQESVTEQDSKDSTYSLSSTLTLSKADYEKHKVYACEVTHQGLSSPVTKSFNRGEC
**Q.** For B1, which “CEA binding detected with anti-CPG2 reporter antibody” value is on record?
**A.** exhibited clear CEA binding
